We go through 3 molecules from paper PMC3749868, “Proteolytic processing of QSOX1A ensures efficient secretion of a potent disulfide catalyst” (Biochemical Journal, 2013).

The target in series [1] is QSOX1B–V5 (quiescin sulfhydryl oxidase 1, splice variant B, V5-tagged) (human) (UniProt O00391). Put plainly: SEC; protein secreted for 3 h into serum-free medium, concentrated and buffer-exchanged (gel-filtration buffer with 0.03% Triton X-100 by the legend, 0.02% DDM by the methods), S200 PC3.2/30 column; fractions analysed by Western blot. For orientation: In gel filtration, larger molecules generally elute earlier.

Series [2] concerns the target cleaved QSOX1A (soluble product of the proteolytic processing of QSOX1A–V5, without the TM domain and the V5 tag) (human). Described as above.
Series [3] has the same target. The experiment in a line: SEC; cell lysate (2% DDM) of the QSOX1A–V5 cell line, Sephadex 200 PC3.2/30 column, 50 mM Tris/HCl pH 7.5, 150 mM NaCl, 1 mM EDTA, 0.02% DDM; fractions analysed by Western blot (anti-V5, anti-QSOX1A).
Series [4] concerns the molecule itself. The experiment in a line: cross-linking; thiol-specific cross-linker BMH, 0.1 mM, added to intact cells in KHM buffer, 30 min on ice, stopped with 20 mM DTT; lysates analysed by Western blot or by immunoisolation (anti-V5–agarose, then anti-QSOX1A) of radiolabelled proteins; MS of the cross-linked product (results not shown). Background: Immunoblotting shows a protein as a band on a membrane.

By stoichiometry N is commonly meant the number of molecules, sites or subunits per partner or assembly.

On to “QSOX1B–V5 (quiescin sulfhydryl oxidase 1, splice variant B, V5-tagged) (from UniProt O00391-2 30-604) (enzyme)”, for which, in series [1], the stoichiometry N amounted to 2.

Take “cleaved QSOX1A (soluble product of the proteolytic processing of QSOX1A–V5, without the TM domain and the V5 tag) (domain or fragment)”: the stoichiometry N in series [2] and in series [3] was 2 throughout.

B1: QSOX1A–V5 (quiescin sulfhydryl oxidase 1, splice variant A, V5-tagged, uncleaved) (enzyme, human, UniProt O00391 30-747, looked up)
chain: APRSALYSPSDPLTLLQADTVRGAVLGSRSAWAVEFFASWCGHCIAFAPTWKALAEDVKAWRPALYLAALDCAEETNSAVCRDFNIPGFPTVRFFKAFTKNGSGAVFPVAGADVQTLRERLIDALESHHDTWPPACPPLEPAKLEEIDGFFARNNEEYLALIFEKGGSYLGREVALDLSQHKGVAVRRVLNTEANVVRKFGVTDFPSCYLLFRNGSVSRVPVLMESRSFYTAYLQRLSGLTREAAQTTVAPTTANKIAPTVWKLADRSKIYMADLESALHYILRIEVGRFPVLEGQRLVALKKFVAVLAKYFPGRPLVQNFLHSVNEWLKRQKRNKIPYSFFKTALDDRKEGAVLAKKVNWIGCQGSEPHFRGFPCSLWVLFHFLTVQAARQNVDHSQEAAKAKEVLPAIRGYVHYFFGCRDCASHFEQMAAASMHRVGSPNAAVLWLWSSHNRVNARLAGAPSEDPQFPKVQWPPRELCSACHNERLDVPVWDVEATLNFLKAHFSPSNIILDFPAAGSAARRDVQNVAAAPELAMGALELESRNSTLDPGKPEMMKSPTNTTPHVPAEGPEASRPPKLHPGLRAAPGQEPPEHMAELQRNEQEQPLGQWHLSKRDTGAALLAESRAEKNRLWGPLEVRRVGRSSKQLVDIPEGQLEARAGRGRGQWLQVLGGGFSYLDISLCVGLYSLSFMGLLAMYTYFQAKIRALKGHAGHPAA
notes: human QSOX1A, the long splice variant of QSOX1 with 143 additional C-terminal amino acids including the single-pass TM domain; uncleaved (full-length) form; Membrane-integrated, V5 on the cytosolic side; also called V5-tagged QSOX1A; uncleaved QSOX1A–V5; source: HT1080, stably overexpressing (cross-linking in cells, SEC of lysate); HT1080, transiently co-transfected, in lysate (co-assembly); not …
For the molecule B1, in series [4], the “stoichiometry N” value came to 2.
